In patent US20160193357A1:
pKd: −log10 of the molar value.

Experiments:
[1] = molecular target: human Trop-2 on cells (human) (UniProt P09758); assay: cell binding on NCI-N87, anti-mouse-HRP, luminescence
[2] = molecular target: rhTrop-2/TACSTD2 (Sino Biological, Inc.) (human) (UniProt P09758); assay: SPR (BIACORE), Trop-2 on chip
[3] = molecular target: recombinant human neonatal receptor (FcRn) (human) (UniProt P55899); assay: SPR (BIACORE), FcRn on chip
[4] = molecular target: rhTrop-2/TACSTD2 (Sino Biological, Inc.) (human) (UniProt P09758); assay: SPR (BIACORE), recombinant human Trop-2 on low-density CM5 chip, 1:1 model, three runs
[5] = molecular target: human Trop-2 on cells (human) (UniProt P09758); assay: cell binding assay; cell line not stated
[6] = molecular target: human Trop-2 on cells (human) (UniProt P09758); assay: cell-based or functional assay
[7] = molecular target: recombinant human neonatal receptor (FcRn) (human) (UniProt P55899); assay: SPR (BIACORE), FcRn on low-density chip, three runs at 400 to 25 nM
[8] = molecular target: Recombinant human Trop-2 with a His-tag (Sino Biological, Cat#10428-H09H) (human) (UniProt P09758); assay: ELISA on His-tagged recombinant human Trop-2 captured on Ni-NTA strips
Chain of Recombinant human Trop-2 with a His-tag (Sino Biological, Cat#10428-H09H) (human) (P09758 27-274 limits assumed): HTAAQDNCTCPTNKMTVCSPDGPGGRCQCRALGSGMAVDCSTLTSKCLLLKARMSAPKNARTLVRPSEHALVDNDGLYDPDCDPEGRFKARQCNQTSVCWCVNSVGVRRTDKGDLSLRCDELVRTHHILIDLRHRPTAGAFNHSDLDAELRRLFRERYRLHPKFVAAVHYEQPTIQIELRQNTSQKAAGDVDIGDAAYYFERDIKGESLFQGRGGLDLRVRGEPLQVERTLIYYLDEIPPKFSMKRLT

Chain of human Trop-2 on cells (human) (P09758 27-323): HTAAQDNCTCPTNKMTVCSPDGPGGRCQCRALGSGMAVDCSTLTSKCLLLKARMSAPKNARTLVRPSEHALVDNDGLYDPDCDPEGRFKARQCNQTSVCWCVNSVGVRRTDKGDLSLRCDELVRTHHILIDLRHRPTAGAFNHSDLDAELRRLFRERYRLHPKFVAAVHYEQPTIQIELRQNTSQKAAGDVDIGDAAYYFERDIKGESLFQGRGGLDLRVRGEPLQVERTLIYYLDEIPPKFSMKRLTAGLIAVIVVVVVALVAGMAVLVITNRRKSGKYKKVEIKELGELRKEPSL
Chain of rhTrop-2/TACSTD2 (Sino Biological, Inc.) (human) (P09758 27-274 limits assumed): as the sequence (P09758 27-274 limits assumed) above

BMax (relative luminescent units) [1] | pKd [1] | reduction of maximum binding (Bmax) compared to RS7 [1] [%] | pKd [4] | ADCC, specific lysis of MDA-MB-468 by PBMCs (E:T 50:1, 33.3 nM) [6] [%] | γH2AX induction in BxPC-3, Mean Fluorescence Intensity [6] [MFI] | γH2AX induction in BxPC-3, Percent Positive [6] [%] | pKd [7] | Substance | further results
– | – | – | 9.59 | 8.6 | 5350 | 69 | 6.72 | Sacituzumab govitecan (IMMU-132, also known as hRS7-CL2A-SN-38) (antibody) | fold improvement in KD compared to naked hRS7 [2]: 2 fold; fold lower average binding level than hRS7 [3]: 2 fold; pKd [5]: 8.92; Median fluorescence intensity of phospho-H2AX staining (dsDNA breaks), HCC1806 (Trop-2+), after 30 min at 4° C., wash and overnight culture [6]: 546 MFI
– | – | – | – | – | 2250 | 12.7 | – | hA20 anti-CD20-SN38 conjugate (antibody) | –

Further lines, the substance ahead of its results:

Substance | BMax (relative luminescent units) [1] | pKd [1] | reduction of maximum binding (Bmax) compared to RS7 [1] [%] | pKd [4] | ADCC, specific lysis of MDA-MB-468 by PBMCs (E:T 50:1, 33.3 nM) [6] [%] | γH2AX induction in BxPC-3, Mean Fluorescence Intensity [6] [MFI] | γH2AX induction in BxPC-3, Percent Positive [6] [%] | pKd [7] | further results
162-46.2 murine anti-Trop-2 monoclonal antibody | 8470 | 9.28 | 25 | – | – | – | – | – | –
MAB650 murine anti-Trop-2 monoclonal antibody (R&D Systems) | 6020 | 9.31 | 50 | – | – | – | – | – | –
humanized RS7 (hRS7) anti-Trop-2 antibody | – | – | – | 9.29 | 29.8 | – | – | 7.03 | pKd [8]: 9.52; ADCC, specific lysis of BxPC-3 by PBMCs (E:T 100:1, 33.3 nM) [6]: 8.5%
